Data published in the RNAGym collection of RNA variant scans (doi:10.1021/acssynbio.7b00057).

B1: Pistol ribozyme (parent)
chain: GGGUCGUUGUUCCAUAAUCGCGUGGAUAUGGCACGCAAGUUUCUACCGGGCACCGUAAAUGUCCGACUGGAGCCGUUCGGGCGGCUAUAAACAGACCUCAGGCCCGAAGCGUGGCGGCACCUGCCGCCGGUGGUAAAAAAGAUCGGAAGAGCACACGUCU

Variants of: B1
Experiment: aptazyme ON/OFF ratio, guanine; higher = stronger switching; co-transcriptional cleavage with and without guanine

Variant	aptazyme ON/OFF ratio
U7G U8A G9C U11A C12A	1.03
U7G U8A U10C U11A C12G C13U	1.38
U7G U8G G9U U10C U11G C12U	1.22
U7G G9U U11C C12A C13G	1.28
U8C G9C U10A U11A C12G C13U	1.12
U8G G9C U10A U11C C12A C13A	1.06
U7C U8C U10A U11G C12U C13A	1.11
U7A U8G G9A U10A U11C C12G C13A	1.21
G9A U11A C12A C13U	1.36
U7G U8G G9U U10C U11G C12G C13U	1.26
U7C U10G C12A C13G	1.14
U7A U8A G9A U10G U11G C12A	1.18
U7G U8C U10G C12G C13U	1.08
U7G G9C U10A U11G C12U	1.43
G9C U10G C13U	1.49
U8G G9A U10G U11A C13A	1.14
U7C G9U U10G U11G C12G	1.14
U7A U8G G9A U10A U11G C12U C13A	1
U7G U8G G9U U10C U11A C13A	1.38
U7A U8C G9U U10A U11G C12G C13A	1.2
U7G U8G G9U U10C U11G C12A	1.32
U7G U10C U11C C12A C13A	1.08
U7C U8C G9U C13A	1.02
U8G G9C U10C U11C C12U C13U	1.04

Variant	aptazyme ON/OFF ratio
U7C U8C U10A U11A C12G C13U	1.11
U7G U8C G9U C12A C13G	1.26
U8C G9U U10G C13A	1.42
U7C U8C G9A U10G U11C	1.22
U7G U8C G9C U10A U11C C12G C13U	1.31
U7A U8C G9C U11G C12U C13U	1.27
U7A U8A G9A U11C C12A C13G	1.14
U7A U8G G9U U11C C12A C13A	1.68
U7G U8A U10A U11A C12A	1.08
U7G U8A G9C U10G C13A	1.11
U8A U10C U11A C12G C13G	1.39
G9U U10C U11A C13U	1.48
U7G U8A U10G U11G C12A C13G	1.38
U7A U8A G9A U10A U11A C13U	1.3
U8C U10G U11C C12U C13U	1.28
U8G G9A U10G C12A C13U	1.45
U7A U8C G9A U11G C12G C13G	1.31
U7A U8G G9C U10A C13G	1.15
U7C U8C G9C U10A U11A C12G C13A	1.11
U7G U8C G9U U10A U11A C12G C13A	1.07
U7C U8C U10A C12G C13A	1.12
U8A G9A U10G U11C C12U	1.07
U8C G9A U10G C12G C13G	1.11
U8C G9C C12U C13A	1.05

Variant	aptazyme ON/OFF ratio
U7A U8G G9C	1.97
U7G G9A U11A C12A C13U	1.15
U7A G9A U11C C12A C13G	1.14
G9A U10C U11C C12U C13G	1.04
U7A U8G G9A U11C C12A C13G	1.3
U7A U8A G9U U10C	2.34
U7C U8C G9A U10C U11G C12A C13G	1.16
U7A U8A G9A U10G U11A C12U C13G	1.16
U7C G9C U11A	1.03
U7A U8C G9A U10G U11A C12A C13A	1.19
U7A U8G G9U U10C U11C C12A	1.3
U7A U8A U11A C12A	1.44
U7C U8A G9C U10G U11A C12U C13G	1.13
U7A U8C G9U U10G U11C C12G C13U	1.21
U7C U8A U11G C12G C13G	1.13
G9A U10A U11A C13A	1.11
U8C G9U U10C U11A C12A C13G	1.08
U7C U8G G9C U10C U11C C12G	1.05
U8G U10G U11A	1.26
U7G U8C G9U U10G	3.44
U8G G9A U10A U11A C12U C13U	1.21
U8A G9C U11G C13A	1.15
U10C U11A C12G C13U	1.37
U7A U8C G9A U11C C12G C13A	1.13

Variant	aptazyme ON/OFF ratio
U7A U10G U11C C13U	1.05
U7A U8A G9U U11G C13A	1.13
U7G U8A G9C U10C U11C C12G C13G	1.04
U7A G9A U11G	1.67
U7C G9A U10A U11C C12U C13G	1.05
U7G G9C U10G U11A C12A C13U	1.17
U8G G9C U10A U11C C12A	1.12
U7G U8C U10A U11A C12A C13G	1.14
U7C U8A G9U U11A C13U	1.17
U7A G9A U10G C12A C13U	1.34
U7G C13A	1.08
U7C U8A G9C U10A U11C C12G C13U	1.36
U7C G9C U10C U11C C12G C13U	1.05
G9A U11G C12A	1.1
U8G G9A U10G C12G C13G	1.16
U8C G9C U10G U11C C12U C13U	1.19
U7G U8G G9U U10C U11C C12U C13A	1.18
U8A U10G U11A C12U C13A	1.42
G9C U10C U11G C12A C13U	1.02
U7G U8G G9U U10G U11C C12A C13A	1.1
U7C U8C G9A U10A C12A C13A	1.19
U7C U8A G9A C12A C13G	1.2
U7G U8G G9C U11G C12G	1.6
U7G G9C U11C C12U C13A	1.37

Variant	aptazyme ON/OFF ratio
U7C G9C U10C C13A	1.04
U7C U8C G9C U11G C12U	1.12
U7A U8C U10G C13G	1.24
U7A U8G G9U U10C U11A	3.38
U8A G9U U11A C13A	1.1
G9A U10G C12U C13G	1.35
U7C G9A U10C U11A C12G C13G	1.39
U8C G9A U10A U11C C13U	1.06
U7G U8C G9U U10G C12G C13U	1.23
U7C U8C G9U U10C U11G	1.32
U7C U8G U10G C12A C13A	1.24
U7A U10G U11C C13A	1.07
U7C U8C G9U U10G U11C C12U C13G	1.09
U7C U8C G9U U10A U11C C12G C13U	1.15
U7C U8C G9A U10G C12G C13A	1.2
U7G U8G U10G U11G C12G C13G	1.18
U7C U8C G9U U10G U11G C12A	1.13
U7A G9U U10C U11G C12G C13A	1.14
U7C U8C G9A U10A C12U C13A	1.14
U7C U8G G9C U10A U11A C12A C13G	1.15
U7G U8G G9U U10A U11G C12A C13U	1.11
U8G U10G U11A C12U C13U	1.26
U7C U8G G9C C12U C13U	1.2
U7G U8G U11C C12A C13U	1.26

Variant	aptazyme ON/OFF ratio
U7G U10C C13G	1.04
U7C U8C G9U U10C U11A C12U C13A	1.13
U7C U8C G9A U10G U11G	1.59
U8A G9A U11G C12G	1.08
U7A U8A U10G C12G	1.43
U8A G9A U10C U11A C12A	1.31
U8A G9C U10C C12A	1.04
U7A G9U C12A C13A	1.27
U7A U8A G9C U10C U11A C13U	1.13
U10A U11A	1.73
U7G U8C G9U U10G U11C C13A	1.38
U8A G9C U10G U11C C12G C13U	1.19
U7G U11G C12U	1.2
U7A U8G G9C C12G C13G	1.18
U8A U10G U11G C12A	1.11
U7G U8A G9U U11C C12A C13A	1.1
U7A U8A U10C U11A C12A C13A	1.1
U8A G9A	1.91
U7C U8C U11G C12A C13U	1.2
U7A G9C U10C U11A C12G C13G	1.16
U7C U8C G9C U10A U11G C12A C13G	1.12
U7G U8A G9C U10G U11A	1.04
U7G U8A G9A U10C U11A C12A	1.12
U7A G9U U10C U11G C12G C13U	1.11

Variant	aptazyme ON/OFF ratio
U8A G9A U10G U11G C12U C13U	1.2
U7A U8G G9A U10C U11G C12A	1.12
U7C U8A U11G C12G C13U	1.13
G9C U10G U11C C12A C13A	1.22
U7G G9A U11G C12G	1.17
U7G U8C G9U U11G C12U	1.55
U7C U8C U10A U11C C13A	1.07
U8C G9C U11A C12A	1.22
U7C G9U U10A U11A C12A C13A	1.3
U7G G9U U10A U11A C13U	1.39
U7A U8G G9U U11C C12U C13U	1.07
U11A C12G C13G	1.18
U7A U8C U10G C12A	1.21
U7G U8C G9U U10A U11C C12A C13G	1.33
U7G U8G G9C U11A C12G C13U	1.2
G9A U10G C12G	1.24
U8G G9U U10C U11A C12G C13G	1.14
U8C G9U U10G U11G C12A C13G	1.07
U7A G9U U10C C12U	1.22
U7G G9C U10A U11A C12U C13G	1.25
U7A U8A G9U U10G U11G C12U	1.37
U7C U8G G9A U10G U11A C12A C13A	1.18
U7C U8A G9U U10C U11C C13A	1.02
